Test system: Beacon (recombinant, expressed as GST-Beacon in E. coli, GST tag cleaved off with thrombin)

Sequence of GST-CLK1 (recombinant human CLK1 fused to glutathione S-transferase, pGEX4T-1) (chain, as listed by the source): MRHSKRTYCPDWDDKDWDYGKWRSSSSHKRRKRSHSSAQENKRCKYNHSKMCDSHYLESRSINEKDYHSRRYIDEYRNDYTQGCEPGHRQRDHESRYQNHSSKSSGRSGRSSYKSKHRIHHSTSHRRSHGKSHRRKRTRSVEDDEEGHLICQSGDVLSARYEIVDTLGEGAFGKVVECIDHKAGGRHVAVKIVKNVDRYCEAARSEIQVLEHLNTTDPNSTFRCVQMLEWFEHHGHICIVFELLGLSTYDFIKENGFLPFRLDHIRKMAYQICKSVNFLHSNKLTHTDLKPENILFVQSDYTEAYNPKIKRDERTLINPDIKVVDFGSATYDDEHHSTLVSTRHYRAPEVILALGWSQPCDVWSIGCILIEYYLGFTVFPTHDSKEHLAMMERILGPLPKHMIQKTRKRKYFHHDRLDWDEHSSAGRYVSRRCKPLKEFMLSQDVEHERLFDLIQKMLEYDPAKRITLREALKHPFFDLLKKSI
Sequence of GST-CLK4 (recombinant human CLK4 fused to glutathione S-transferase, pGEX4T-1) (chain, as listed by the source): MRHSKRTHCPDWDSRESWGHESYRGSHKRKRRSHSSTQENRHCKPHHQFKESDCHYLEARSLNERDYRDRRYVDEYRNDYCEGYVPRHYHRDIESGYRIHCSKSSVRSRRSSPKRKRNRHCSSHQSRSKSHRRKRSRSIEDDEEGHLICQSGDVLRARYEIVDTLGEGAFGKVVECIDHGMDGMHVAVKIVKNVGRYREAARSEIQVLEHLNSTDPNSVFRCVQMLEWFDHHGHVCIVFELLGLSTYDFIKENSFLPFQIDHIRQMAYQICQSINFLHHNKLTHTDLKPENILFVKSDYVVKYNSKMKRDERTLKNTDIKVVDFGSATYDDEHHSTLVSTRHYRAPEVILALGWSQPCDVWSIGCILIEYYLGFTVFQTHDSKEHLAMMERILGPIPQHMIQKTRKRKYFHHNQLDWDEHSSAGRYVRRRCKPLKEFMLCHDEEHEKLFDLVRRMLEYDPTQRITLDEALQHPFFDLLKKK
Sequence of GST-CLK2 (recombinant human CLK2 fused to glutathione S-transferase, pGEX4T-1) (chain, as listed by the source): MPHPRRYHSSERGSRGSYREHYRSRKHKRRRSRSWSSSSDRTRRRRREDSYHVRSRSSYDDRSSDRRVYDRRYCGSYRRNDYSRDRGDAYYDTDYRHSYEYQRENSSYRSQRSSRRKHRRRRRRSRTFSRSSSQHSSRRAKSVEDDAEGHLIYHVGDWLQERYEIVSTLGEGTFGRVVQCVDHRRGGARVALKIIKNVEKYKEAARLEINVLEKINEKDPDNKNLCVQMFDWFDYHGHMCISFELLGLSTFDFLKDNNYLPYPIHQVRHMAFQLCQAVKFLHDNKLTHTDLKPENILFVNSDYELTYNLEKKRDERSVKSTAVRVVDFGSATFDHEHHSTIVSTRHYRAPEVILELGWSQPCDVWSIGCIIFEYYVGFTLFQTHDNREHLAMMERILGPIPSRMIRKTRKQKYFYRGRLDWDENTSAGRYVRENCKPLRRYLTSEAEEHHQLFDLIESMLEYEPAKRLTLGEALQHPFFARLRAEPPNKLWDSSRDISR

| Substance | phosphorylation of Beacon in kinase assay with [gamma-32P]-ATP |
| --- | --- |
| GST-CLK4 (recombinant human CLK4 fused to glutathione S-transferase, pGEX4T-1) | Beacon was not phosphorylated by any of the CLKs |
| GST-CLK2 (recombinant human CLK2 fused to glutathione S-transferase, pGEX4T-1) | Beacon was not phosphorylated by any of the CLKs |
| GST-CLK1 (recombinant human CLK1 fused to glutathione S-transferase, pGEX4T-1) | Beacon was not phosphorylated by any of the CLKs |

From US20070135335
